According to the supplement of paper PMC11865577:

The sequences below were run on TO-3-N3-2 (biotin conjugate) (assay: pull-down binding Z-score (relative to library population); higher = stronger binding). Settings: RNA library: Library-2.
How it was run: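 To score binding, a beads-only signal was subtracted, barcoded replicate probes were averaged with the highest and lowest dropped, and the value was converted to a Z-score using the library mean and standard deviation. The input was 1 μg of Cy5- or Cy3-end-labelled RNA library, heat-folded in phosphate/NaCl/KCl buffer and mixed for 60 min at 25 °C with streptavidin beads carrying 100 pmol of biotin-conjugated small molecule. Bound RNA was eluted in hot SDS and hybridised to a DNA barcode microarray at 55.5 °C for 20 h.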

Point of comparison: “CUCUCAUCGAUCUCCAAGAACUUGGAAAGUAUGAGCAG [SHAPE_invitro_SARS-CoV-2_Motif_456]”, “pull-down binding Z-score” value -0.286. Against it:
- CUAAUAACACUAAAGGUUCAUUGCCUAUUAAUGUUAUAG — higher, -0.0592
- CUACAAAGCAACCAUGAUCUGUAUUGUCAAGUCCAUGGUAAUGCACAUGUAG — higher, -0.092
- CUACACUAGUGCCACAAGAGCACUAUGUUAG — higher, -0.213
- CUAGGUUUUUCUAUGUACUUGG — higher, 0.313
- CUAGUUGUGAUGCAAUCAUGACUAG — lower, -0.444
- CUAUACAUUCUUUAAGAGUUUGUGUAG — lower, -0.294
- CUAUACUGUUACUAGAUCAGGCAUUAGUGUCUGAUGUUGGUGAUAGUGCGG — lower, -0.622
- CUAUAGUAGCUGGUGGUAUUGUAGCUAUCGUAG [SHAPE_invitro_SARS-CoV-2_Motif_182] — higher, 0.54
- CUAUCAGGCCGGUAG [DMSMaPseq_invitro_SARS-CoV-2_Motif_406] — lower, -0.579
- CUAUUCAAACAAUUGUUGAGGUUCAACCUCAAUUAGAGAUGGAACUUACACCAGUUGUUCAGACUAUUGAAGUGAAUAGUUUUAG [SHAPE_invivo_SARS-CoV-2_Multi_36_ComplexLevel_1] — lower, -0.292
- CUCAAACCCGUCCUUGAUUGGCUUGAAGAGAAGUUUAAGGAAGGUGUAGAG [DMSMaPseq_invitro_SARS-CoV-2_Motif_41] — higher, -0.174
- CUCAGAGUAGAAAUUUACAAGAAUUUAAACCCAGGAG [DMSMaPseq_invitro_SARS-CoV-2_Motif_359] — higher, -0.119
- CUCAGUCCAAGAUGGUAUUUCUACUACCUAGGAACUGGG [SHAPE_invivo_SARS-CoV-2_Motif_544] — higher, -0.217
- CUCCAAAAAGAG — lower, -0.675
- CUCCAGCACGGAG [IAV_invivo_PB2_1_Motif_21+IAV_invivo_PB2_1_Motif_21] — lower, -0.425
- CUCCAGGAGGGG [IAV_invivo_PB2_1_Motif_10+IAV_invivo_PB2_1_Motif_10] — lower, -0.312
- CUCCUUUGAUGGUUGCAUACAUGUUGGAG [IAV_invivo_PB2_1_Motif_8+IAV_invivo_PB2_1_Motif_8] — higher, -0.208
- CUCGUCUAUCUUCUGCAGGCUGCUUACGGUUUCGUCCGUGUUGCAGCCGAUCAUCAGCACAUCUAGGUUUCGUCCGGGUGUGACCGAAAGGUAAGAUGGAGAG — lower, -0.556
- CUCGUCUAUCUUCUGCAGGCUGCUUACGGUUUCGUCCGUGUUGCAGCCGAUCAUCAGCACAUCUAGGUUUUGUCCGGGUGUGACCGAAAGGUAAGAUGGAGAG — lower, -0.563
- CUCUAUGACAAACUUGUUUCAAGCUUUUUGGAAAUGAAGAGUGAAAAGCAAGUUGAACAAAAGAUCGCUGAG — lower, -0.291
- CUCUCAUUUUGUUAACUUAGACAACCUGAGAG — lower, -0.35
- CUCUGGAACACUUUUACAAGACUUCAGAG [SHAPE_invivo_SARS-CoV-2_Motif_367] — lower, -0.651
- CUCUUGAGUGCAUUAAAGACCUUCUAGCACGUGCUGGUAAAGCUUCAUGCACUUUGUCCGAACAACUGGACUUUAUUGACACUAAGAG [SHAPE_invitro_SARS-CoV-2_Multi_69_ComplexLevel_1] — higher, -0.197
- CUCUUGUAAUGUAAACAGAUUUAAUGUUGCUAUUACCAGAG — higher, -0.0635
- CUGAAAAAUGGGAAUCUGGAGUAAAAGACUGUGUUGUAUUACACAGUUACUUCACUUCAGACUAUUACCAG — higher, -0.182
- CUGACAAAGUUUUCAG — lower, -0.329
- CUGACUUAACAAAGCCUUACAUUAAGUGGGAUUUGUUAAAAUAUGACUUCACGGAAGAGAGGUUAAAACUCUUUGACCGUUAUUUUAAAUAUUGG — higher, -0.143
- CUGAUCCUAGUUUUCUGGGUAG [SHAPE_invivo_SARS-CoV-2_Motif_108] — lower, -0.369
- CUGCACUGUUAGCGGGUACAAUCACUUCUGGUUGGACCUUUGGUGCAG [SHAPE_invitro_SARS-CoV-2_Motif_437] — higher, -0.189
- CUGCAGAUGCAG [IAV_invivo_HA_4_Motif_2+IAV_invivo_HA_4_Motif_2] — lower, -0.317
- CUGCCUAUAUGGAAG — lower, -0.364
- CUGCUUUUGGCUUAGUUGCAG — higher, 0.206
- CUGGAAUUGCCGUUUUAG [SHAPE_invivo_SARS-CoV-2_Motif_210] — higher, -0.112
- CUGGACUCUAAAUAGAAACCAACCUGCUGCAACAGCAUUGGCCAACACAAUAGAAGUGUUCAGAUCAAAUGGCCUCACGGCCAAUGAGUCUGG — lower, -0.486
- CUGGCAGUAACCAG [SHAPE_invivo_SARS-CoV-2_Motif_538] — lower, -0.422
- CUGGGAAACUGUUAAAAUUCAGUGGUCCCAG [IAV_invivo_PB2_1_Motif_27+IAV_invivo_PB2_1_Motif_27] — higher, -0.0981
- CUGGGCCAUAAGGACCAG [IAV_invivo_NP_5_Motif_20+IAV_invivo_NP_5_Motif_20] — lower, -0.477
- CUGGGGGCAAUCAGUUUCUGG [IAV_invivo_HA_4_Motif_20+IAV_invivo_HA_4_Motif_20] — higher, -0.0228
- CUGGUCCAUGCUCAUACCCAAGCAGAAAGUGGCAGGCCCUCUUUGUAUCAGAAUGGACCAG [IAV_invivo_NS1_NEP_8_Motif_8+IAV_invivo_NS1_NEP_8_Motif_8] — higher, -0.24
- CUGUAGCUGCAUUUCACCAAGAAUGUAGUUUACAG [DMSMaPseq_invitro_SARS-CoV-2_Motif_500] — higher, -0.0203
- CUGUCACUAAG — higher, -0.0755
- CUGUCAUGGAAGCAAGUACUGGCAG [IAV_invivo_PA_3_Motif_16+IAV_invivo_PA_3_Motif_16] — higher, 0.12
- CUGUCCAAGACAUGUGAUCUGCACCUCUGAAGACAUGCUUAACCCUAAUUAUGAAGAUUUACUCAUUCGUAAGUCUAAUCAUAAUUUCUUGGUACAG — lower, -0.739
- CUGUGGGUUUUACACUUAAAAACACAG [DMSMaPseq_invitro_SARS-CoV-2_Motif_239] — higher, -0.131
- CUGUUAAUGUAGCAUUUGAGCUUUGGGCUAAGCGCAACAUUAAACCAG — higher, -0.268
- CUGUUCCACCAUUGAAGAGCUCAG [IAV_invivo_PB1_2_Motif_38+IAV_invivo_PB1_2_Motif_38] — higher, -0.178
- CUGUUGAUUCAUCACAG — higher, 0.174
- CUGUUGGUACCAAUUUACCUUUACAGCUAGGUUUUUCUACAGGUGUUAACCUAGUUGCUGUACCUACAG — lower, -0.514
- CUGUUUGGAUGACAG — lower, -0.753
- CUGUUUUUCAG — lower, -0.661
- CUUACUGACAAUGUAUACAUUAAAAAUGCAGACAUUGUGGAAG [DMSMaPseq_invitro_SARS-CoV-2_Motif_59] — higher, -0.18
- CUUAGCUGUCUUUGAUAAAAAUCUCUAUGACAAACUUGUUUCAAGCUUUUUGGAAAUGAAGAGUGAAAAGCAAGUUGAACAAAAGAUCGCUGAG [SHAPE_invivo_SARS-CoV-2_Motif_73] — higher, 0.0166
- CUUAGGGACAACCUUGAACCUGGG [IAV_invivo_PA_3_Motif_29+IAV_invivo_PA_3_Motif_29] — lower, -0.446
- CUUAGUUUUAAG [DMSMaPseq_invitro_SARS-CoV-2_Motif_263] — higher, -0.268
- CUUAUGUUGGUUGCCAUAACAAGUGUGCCUAUUGGGUUCCACGUGCUAGCGCUAACAUAGG — lower, -0.751
- CUUCACAUAUGUAUUGUUCUUUUUACCCUCCAGAUGAGGAUGAAGAAGAAGGUGAUUGUGAAG — higher, -0.0402
- CUUCAUUAAAAGAAUUACUGCAAAAUGGUAUGAAUGGACGUACCAUAUUGGGUAGUGCUUUAUUAGAAG — higher, -0.0236
- CUUCCGAGUCAUAGGAAACUAUGACAUACAGAUCAACAGGGGCUCGCUUGAGCCCCCCAGCCAGUCGGAGG [mMTR1] — lower, -0.458
- CUUCUGCUGCUCUUCAACCUGAAGAAGAGCAAGAAGAAG — higher, -0.22
- CUUCUUGAAAUACUCCAAAAAGAGAAAGUCAACAUCAAUAUUGUUGGUGACUUUAAACUUAAUGAAG — higher, -0.0464
- CUUCUUGCAUGUGACUUAUGUCCCUGCACAAGAAAAG [SHAPE_invitro_SARS-CoV-2_Motif_449] — higher, -0.257
- CUUGAACAAUGGAACCUAGUAAUAGGUUUCCUAUUCCUUACAUGGAUUUGUCUUCUACAAUUUGCCUAUGCCAACAGG — higher, -0.181
- CUUGAACAAUGGAACCUAGUAAUAGGUUUCCUAUUCCUUACAUGGAUUUGUCUUCUACAAUUUGCCUAUGCCAACAGGAAUAGGUUUUUGUAUAUAAUUAAG — lower, -0.369
- CUUGAUGAUUUUGUUGAAAUAAUAAAAUCCCAAG — higher, -0.266
